Laboratory results as given in article PMC10148854, “A link between STK signalling and capsular polysaccharide synthesis in Streptococcus suis” (Nature Communications, 2023).

Columns and labels:
CpsB (rCpsB) = molecular target: T1, CpsB (rCpsB) (Streptococcus suis, UniProt Q9X4U8); assay: colorimetric phosphatase assay, absorbance […] nm; format: biochemical; conditions: 50 nM enzyme, 16 uM pNPP, 1 mM MnCl2, 20 mM Tris pH 8.0, 150 mM NaCl, 37 °C
T1 construct: gene cps2D; rs02785 in pET-28a, His-tag, expressed in E. coli BL21(DE3), HisTrap purified; capsule locus tyrosine phosphatase (PHP type, Mn-dependent)

[1] = molecular target: rCpsB-His (Streptococcus suis); assay: SPR
[2] = molecular target: CcpS, as crystallised (Streptococcus suis); assay: crystal structure; sitting-drop vapour diffusion at 277 K; 0.1 M Tris-HCl pH 8.0, 15% ethanol; 1.6 Å; molecular replacement with IreB (PDB 5US5)

Molecule: O=[N+]([O-])c1ccc(OP(=O)(O)O)cc1 [pNPP, p-nitrophenyl phosphate]
- relative activity (CpsB (rCpsB)): Colorimetric phosphatase assays of CpsB activity were performed using p-nitrophenyl phosphate (pNPP)

Molecule: rCcpS-T4VT7V (natural protein)
- fold higher affinity than rCcpS-T4ET7E [1]: > 10 fold

Molecule: CcpS, as crystallised (natural protein)
- stoichiometry N [2]: 2
